Data published in patent publication US20170101470A1 (PROTHENA BIOSCIENCES, published 2017).

T1: recombinant hMCAM-His (human, UniProt P43121 24-559)
T1 chain: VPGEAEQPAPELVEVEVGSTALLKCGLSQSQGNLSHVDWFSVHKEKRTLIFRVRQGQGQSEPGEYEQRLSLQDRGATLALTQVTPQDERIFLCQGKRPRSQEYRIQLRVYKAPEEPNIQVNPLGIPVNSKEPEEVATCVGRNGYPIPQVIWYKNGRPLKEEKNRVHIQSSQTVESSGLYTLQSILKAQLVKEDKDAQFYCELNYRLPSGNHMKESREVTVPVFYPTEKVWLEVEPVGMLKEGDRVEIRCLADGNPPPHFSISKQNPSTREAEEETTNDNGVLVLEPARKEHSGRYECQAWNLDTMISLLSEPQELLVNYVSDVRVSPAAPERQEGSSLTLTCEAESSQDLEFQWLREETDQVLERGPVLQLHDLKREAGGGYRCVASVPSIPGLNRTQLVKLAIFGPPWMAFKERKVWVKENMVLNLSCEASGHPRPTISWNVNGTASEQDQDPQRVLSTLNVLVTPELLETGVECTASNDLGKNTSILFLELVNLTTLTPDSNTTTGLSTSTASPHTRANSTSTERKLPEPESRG

B1: human MCAM expressed on CHO cells (full length human MCAM gene) (receptor)
chain: VPGEAEQPAPELVEVEVGSTALLKCGLSQSQGNLSHVDWFSVHKEKRTLIFRVRQGQGQSEPGEYEQRLSLQDRGATLALTQVTPQDERIFLCQGKRPRSQEYRIQLRVYKAPEEPNIQVNPLGIPVNSKEPEEVATCVGRNGYPIPQVIWYKNGRPLKEEKNRVHIQSSQTVESSGLYTLQSILKAQLVKEDKDAQFYCELNYRLPSGNHMKESREVTVPVFYPTEKVWLEVEPVGMLKEGDRVEIRCLADGNPPPHFSISKQNPSTREAEEETTNDNGVLVLEPARKEHSGRYECQAWNLDTMISLLSEPQELLVNYVSDVRVSPAAPERQEGSSLTLTCEAESSQDLEFQWLREETDQVLERGPVLQLHDLKREAGGGYRCVASVPSIPGLNRTQLVKLAIFGPPWMAFKERKVWVKENMVLNLSCEASGHPRPTISWNVNGTASEQDQDPQRVLSTLNVLVTPELLETGVECTASNDLGKNTSILFLELVNLTTLTPDSNTTTGLSTSTASPHTRANSTSTERKLPEPESRGVVIVAVIVCILVLAVLGAVLYFLYKKGKLPCRRSGKQEITLPPSRKTELVVEVKSDKLPEEMGLLQGSSGDKRAPGDQGEKYIDLRH
notes: also called hMCAM expressing CHO cells; CD146

Assays:
[1] = target: T1, recombinant hMCAM-His; test: ForteBio Octet Red, antibody on anti-human Fc sensors, hMCAMHis analyte, 1:1 fit; affinity relative to rodent 2120, Expt. #1
Procedure: (§1) The affinities were measured using the ForteBio Octet Red. Anti-human Fc sensors were used to capture the humanized antibodies, and several concentrations of hMCAMHis analyte were used to determine the affinity using a 1:1 fitting model.

[2] = target: T1, recombinant hMCAM-His; test: competitive ELISA on coated hMCAM-His, competitor biotinylated rodent or chimeric 2120; IC50 relative to rodent 2120
Procedure: (§2) The apparent affinities of the humanized antibodies were compared to the parental rodent or chimeric antibody in a competitive ELISA according to the following protocol: ELISA plates were coated with recombinant hMCAM-His, and blocked with casein buffer to prevent non-specific binding. Biotinylated rodent or chimeric antibody was added at a subsaturating concentration, in the presence or absence of 3× increasing concentrations of unlabeled competitor (humanized antibody, rodent, or chimeric). After washing to remove unbound antibody, streptavidin HRP was added to allow detection of the biotinylated antibody. The ELISA was developed with TMB substrate and the OD450 was measured. The IC50 of the unlabeled competitor was determined using the GraphPad Prism5 software.

[3] = target: T1, recombinant hMCAM-His; test: ForteBio Octet Red, antibody on anti-human Fc sensors, hMCAMHis analyte, 1:1 fit; affinity relative to rodent 2120, second Forte column
Procedure: as §1

[4] = target: T1, recombinant hMCAM-His; test: competitive ELISA on coated hMCAM-His, competitor biotinylated rodent or chimeric 2120; IC50 relative to rodent 2120, Expt. #2
Procedure: as §2

[5] = target: B1; test: laminin/FACS assay: blocking of recombinant laminin 411 binding to hMCAM expressing CHO cells, relative to rodent 2120, Expt#1
Procedure: (§3) Following incubation for 30-45 minutes, the cells were washed and anti-laminin conjugated to AF650 (NovusBio) was added to detect the bound laminin. The cells were run on a flow cytometer to measure the laminin binding signal.

[6] = target: T1, recombinant hMCAM-His; test: ForteBio Octet Red, antibody on anti-human Fc sensors, hMCAMHis analyte, 1:1 fit; affinity relative to rodent 2120, Expt. #2
Procedure: as §1

[7] = target: B1; test: laminin/FACS assay: blocking of recombinant laminin 411 binding to hMCAM expressing CHO cells, relative to rodent 2120, Expt#2
Procedure: as §3

[8] = target: T1, recombinant hMCAM-His; test: competitive ELISA on coated hMCAM-His, competitor biotinylated rodent or chimeric 2120; IC50 relative to rodent 2120, Expt. #1
Procedure: as §2

[9] = target: T1, recombinant hMCAM-His; test: ForteBio Octet Red, antibody on anti-human Fc sensors, hMCAMHis analyte, 1:1 fit; affinity relative to rodent 2120, first Forte column
Procedure: as §1

[10] = target: T1, recombinant hMCAM-His; test: summary of ForteBio and competitive ELISA on hMCAM-His
Procedure: as §2, §1

[11] = target: B1; test: summary of laminin blocking assay on hMCAM expressing CHO cells
Procedure: as §3

[12] = target: T2, recombinant laminin 511 (UniProt O15230 36-3695; P07942 22-1786; P11047 34-1609); test: flow cytometry with a pan-laminin antibody on CHO cells transfected with human MCAM
T2 construct: also called laminin 10 (α5β1γ1)

[13] = target: laminin α-4 (UniProt Q16363 25-1823); test: FACS on MCAM mutants displayed on mammalian cells
Sequence of laminin α-4 (Q16363 25-1823): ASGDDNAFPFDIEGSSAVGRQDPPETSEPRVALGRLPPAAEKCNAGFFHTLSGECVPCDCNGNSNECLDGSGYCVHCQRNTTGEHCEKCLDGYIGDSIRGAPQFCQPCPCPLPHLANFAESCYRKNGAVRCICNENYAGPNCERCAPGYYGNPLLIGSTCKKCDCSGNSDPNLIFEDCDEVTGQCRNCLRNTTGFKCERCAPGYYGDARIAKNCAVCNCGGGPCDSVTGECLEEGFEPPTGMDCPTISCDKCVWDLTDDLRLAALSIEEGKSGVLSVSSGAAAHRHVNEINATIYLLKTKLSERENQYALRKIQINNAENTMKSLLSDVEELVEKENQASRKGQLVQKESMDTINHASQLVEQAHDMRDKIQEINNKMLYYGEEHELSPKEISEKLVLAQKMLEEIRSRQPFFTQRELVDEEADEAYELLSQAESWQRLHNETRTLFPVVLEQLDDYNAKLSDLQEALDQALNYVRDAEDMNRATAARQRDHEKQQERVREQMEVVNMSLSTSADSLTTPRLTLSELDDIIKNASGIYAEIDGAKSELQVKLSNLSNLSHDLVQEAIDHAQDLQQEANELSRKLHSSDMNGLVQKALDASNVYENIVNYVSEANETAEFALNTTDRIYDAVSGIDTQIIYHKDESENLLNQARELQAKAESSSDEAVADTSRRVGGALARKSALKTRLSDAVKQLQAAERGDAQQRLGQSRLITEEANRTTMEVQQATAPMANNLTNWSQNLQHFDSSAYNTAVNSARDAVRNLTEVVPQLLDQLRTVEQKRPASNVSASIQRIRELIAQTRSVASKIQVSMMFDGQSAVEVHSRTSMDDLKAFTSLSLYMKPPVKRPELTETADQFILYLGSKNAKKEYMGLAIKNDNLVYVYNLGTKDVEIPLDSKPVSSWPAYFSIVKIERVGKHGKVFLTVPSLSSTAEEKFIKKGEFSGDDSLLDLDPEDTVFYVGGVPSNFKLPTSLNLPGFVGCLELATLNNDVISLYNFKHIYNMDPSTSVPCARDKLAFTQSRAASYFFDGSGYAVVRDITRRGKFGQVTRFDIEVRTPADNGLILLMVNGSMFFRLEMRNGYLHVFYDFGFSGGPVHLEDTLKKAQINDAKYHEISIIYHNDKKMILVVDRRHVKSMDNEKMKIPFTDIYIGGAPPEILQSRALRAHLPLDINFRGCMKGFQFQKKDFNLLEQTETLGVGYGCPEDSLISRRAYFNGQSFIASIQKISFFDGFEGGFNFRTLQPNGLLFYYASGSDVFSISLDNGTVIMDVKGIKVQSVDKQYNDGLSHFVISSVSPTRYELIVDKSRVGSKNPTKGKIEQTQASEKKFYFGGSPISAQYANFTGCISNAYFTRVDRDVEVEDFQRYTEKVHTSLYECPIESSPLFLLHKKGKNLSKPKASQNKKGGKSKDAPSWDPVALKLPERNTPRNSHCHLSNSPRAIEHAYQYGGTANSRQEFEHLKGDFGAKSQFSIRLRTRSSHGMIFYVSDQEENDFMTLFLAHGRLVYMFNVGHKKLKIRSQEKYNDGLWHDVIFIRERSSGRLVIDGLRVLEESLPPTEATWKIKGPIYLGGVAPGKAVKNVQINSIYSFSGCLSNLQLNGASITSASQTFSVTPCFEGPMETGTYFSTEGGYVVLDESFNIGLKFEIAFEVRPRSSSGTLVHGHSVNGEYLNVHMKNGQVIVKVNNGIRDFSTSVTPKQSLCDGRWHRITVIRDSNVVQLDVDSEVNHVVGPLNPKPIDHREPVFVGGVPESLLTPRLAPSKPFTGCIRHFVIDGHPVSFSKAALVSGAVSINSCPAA

Row | Fold over rodent (Forte) [1] [fold] | Fold over rodent (ELISA) [2] [fold] | Fold over rodent (Forte) [3] [fold] | Fold over rodent (ELISA) [4] [fold] | Fold over rodent (Blocking) [5] [fold] | Fold over rodent (Forte) [6] [fold] | Fold over rodent (Blocking) [7] [fold] | Fold over rodent (ELISA) [8] [fold] | Fold over rodent (Forte) [9] [fold] | Binder | further results
1 | 5.64 | 1.8 | 5.8 | 2.42 | 1.7 | 6.21 | 2.8 | 2.23 | 5.9 | humanized anti-MCAM antibody h2120_VH1 + h2120_VL3 (antibody, V domains shown, V regions cloned into vectors containing human CK (VL) or human IgG1 (VH); also called h2120VH1VL3; Standard VH + conservative VL) VH: QVTLKESGPVLVKPTETLTLTCTVSGFSLTSNGVSWVRQPPGKALEWIAAISSGGTTYYNSAFKSRLTISRDTSKSQVVLTMTNMDPVDTATYYCARRYGYGWYFDFWGQGTLVTVSS VL: DIQMTQSPSSLSASVGDRVTINCKASQNIYNSLAWYQQKPGKAPKVLIFNANSLQTGIPSRFSGSGSGTDFTLTISSLQPEDFATYYCQQFYSGYTFGQGTKLEIK | 
2 | 6.57 |  |  | 2.62 |  | 6.43 |  | 1.93 |  | humanized anti-MCAM antibody h2120_VH2 + h2120_VL3 (antibody, V domains shown, Human IgG1 / human kappa; also called h2120VH2VL3; Conservative VH + conservative VL) VH: QVTLKESGPVLVKPTETLTLTCTVSGFSLTSNGVSWVRQPPGKALEWIAAISSGGTTYYNSAFKSRLSISRDTSKSQVVLTMTNMDPVDTATYYCARRYGYGWYFDFWGQGTLVTVSS VL: DIQMTQSPSSLSASVGDRVTINCKASQNIYNSLAWYQQKPGKAPKVLIFNANSLQTGIPSRFSGSGSGTDFTLTISSLQPEDFATYYCQQFYSGYTFGQGTKLEIK | 
3 |  | 2.4 | 1.2 |  | 1.2 |  | 1.5 |  | 1.1 | humanized anti-MCAM antibody h2120_VH5 + h2120_VL3 (antibody, V domains shown, Human IgG1 / human kappa; also called h2120VH5VL3; VH5VL3) VH: QVTLKESGPVLVKPTETLTLTCTVSGFSLTSNAVSWVRQPPGKALEWIAAISSGGTTYYNSAFKSRLTISRDTSKSQVVLTMTNMDPVDTATYYCARRYGYGWYFDFWGQGTLVTVSS VL: DIQMTQSPSSLSASVGDRVTINCKASQNIYNSLAWYQQKPGKAPKVLIFNANSLQTGIPSRFSGSGSGTDFTLTISSLQPEDFATYYCQQFYSGYTFGQGTKLEIK | reduction in affinity (fold, against rodent 2120) [10]: < 2 fold; reduction in potency (fold, against rodent 2120) [11]: < 2 fold
4 |  |  |  |  |  |  |  |  |  | B1 | binding result [12]: no binding (tested: 10 µg/ml)
5 |  |  |  |  |  |  |  |  |  | human MCAM Y318A mutant displayed on mammalian cells (Example 5) (receptor, construct and any tag not described) VPGEAEQPAPELVEVEVGSTALLKCGLSQSQGNLSHVDWFSVHKEKRTLIFRVRQGQGQSEPGEYEQRLSLQDRGATLALTQVTPQDERIFLCQGKRPRSQEYRIQLRVYKAPEEPNIQVNPLGIPVNSKEPEEVATCVGRNGYPIPQVIWYKNGRPLKEEKNRVHIQSSQTVESSGLYTLQSILKAQLVKEDKDAQFYCELNYRLPSGNHMKESREVTVPVFYPTEKVWLEVEPVGMLKEGDRVEIRCLADGNPPPHFSISKQNPSTREAEEETTNDNGVLVLEPARKEHSGRAECQAWNLDTMISLLSEPQELLVNYVSDVRVSPAAPERQEGSSLTLTCEAESSQDLEFQWLREETDQVLERGPVLQLHDLKREAGGGYRCVASVPSIPGLNRTQLVKLAIFGPPWMAFKERKVWVKENMVLNLSCEASGHPRPTISWNVNGTASEQDQDPQRVLSTLNVLVTPELLETGVECTASNDLGKNTSILFLELVNLTTLTPDSNTTTGLSTSTASPHTRANSTSTERKLPEPESRGVVIVAVIVCILVLAVLGAVLYFLYKKGKLPCRRSGKQEITLPPSRKTELVVEVKSDKLPEEMGLLQGSSGDKRAPGDQGEKYIDLRH | binding result [13]: no binding
